Measured values from article PMC9482650, “Quantitative fragmentomics allow affinity mapping of interactomes” (Nature Communications, 2022).

T1: RHPN1, Q8TCX5
T1 sequence (Q8TCX5 508-602, limits assumed, looked up): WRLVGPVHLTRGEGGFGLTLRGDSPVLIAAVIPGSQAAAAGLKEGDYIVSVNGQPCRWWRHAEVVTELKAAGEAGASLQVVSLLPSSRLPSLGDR

T2: SYNJ2BP, P57105
T2 sequence (P57105 8-110, limits assumed, looked up): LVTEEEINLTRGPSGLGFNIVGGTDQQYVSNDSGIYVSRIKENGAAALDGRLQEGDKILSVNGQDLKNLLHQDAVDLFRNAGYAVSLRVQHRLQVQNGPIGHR

T3: PTPN13_1, Q12923
T3 sequence (Q12923 1088-1188, limits assumed, looked up): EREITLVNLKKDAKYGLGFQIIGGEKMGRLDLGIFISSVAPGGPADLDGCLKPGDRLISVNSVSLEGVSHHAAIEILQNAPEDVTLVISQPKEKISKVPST

T4: GRIP1_4, Q9Y3R0
T4 sequence (Q9Y3R0 467-571, limits assumed, looked up): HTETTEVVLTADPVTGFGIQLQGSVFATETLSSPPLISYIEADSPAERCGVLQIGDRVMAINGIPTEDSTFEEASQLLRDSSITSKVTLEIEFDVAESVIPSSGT

T5: PARD3B_1, Q8TEW8
T5 sequence (Q8TEW8 196-299, limits assumed, looked up): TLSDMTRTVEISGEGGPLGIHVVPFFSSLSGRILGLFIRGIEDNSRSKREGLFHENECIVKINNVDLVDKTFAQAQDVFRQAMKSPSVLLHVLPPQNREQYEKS

T6: DFNB31_1, Q9P202
T6 sequence (Q9P202 135-233, limits assumed, looked up): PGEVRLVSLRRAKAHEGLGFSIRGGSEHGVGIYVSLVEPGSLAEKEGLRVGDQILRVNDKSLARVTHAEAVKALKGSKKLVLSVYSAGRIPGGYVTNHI

T7: GRIP1_2, Q9Y3R0
T7 sequence (Q9Y3R0 145-248, limits assumed, looked up): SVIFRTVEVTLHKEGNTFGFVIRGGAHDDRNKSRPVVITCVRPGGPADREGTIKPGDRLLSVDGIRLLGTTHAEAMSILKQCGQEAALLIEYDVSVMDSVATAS

T8: DLG3_1, Q92796
T8 sequence (Q92796 125-227, limits assumed, looked up): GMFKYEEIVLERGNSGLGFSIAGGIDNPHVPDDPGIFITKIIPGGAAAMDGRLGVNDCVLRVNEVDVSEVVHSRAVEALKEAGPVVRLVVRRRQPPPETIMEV

T9: LIN7B, Q9HAP6
T9 sequence (Q9HAP6 88-185, limits assumed, looked up): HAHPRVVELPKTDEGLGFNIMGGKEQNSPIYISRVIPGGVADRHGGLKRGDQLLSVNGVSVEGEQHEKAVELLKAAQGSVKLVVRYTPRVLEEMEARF

T10: DLG3_2, Q92796
T10 sequence (Q92796 221-321, limits assumed, looked up): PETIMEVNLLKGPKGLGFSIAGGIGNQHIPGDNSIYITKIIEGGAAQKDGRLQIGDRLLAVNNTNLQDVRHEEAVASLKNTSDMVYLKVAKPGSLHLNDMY

T11: MPDZ_10, O75970
T11 sequence (O75970 1624-1722, limits assumed, looked up): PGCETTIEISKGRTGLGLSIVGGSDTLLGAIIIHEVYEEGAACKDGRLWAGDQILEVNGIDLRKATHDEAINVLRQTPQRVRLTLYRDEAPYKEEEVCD

T12: HTRA3, P83110
T12 sequence (P83110 354-453, limits assumed, looked up): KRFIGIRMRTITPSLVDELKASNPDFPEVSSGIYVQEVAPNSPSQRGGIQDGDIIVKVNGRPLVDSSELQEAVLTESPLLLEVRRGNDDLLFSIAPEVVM


Molecular target: NOS1, P29475
Sequence (P29475 9-101): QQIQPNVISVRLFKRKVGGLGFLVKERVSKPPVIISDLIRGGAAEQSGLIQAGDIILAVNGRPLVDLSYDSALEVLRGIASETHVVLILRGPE
Experiment: holdup assay
Parameters: key: below the threshold = too weak to quantify, mostly under pKd 3.1 to 4
Settings: plain residues with an end cap or a label only (N-terminal biotin on a linker: ado-ado)

| Binder | pKd |
| --- | --- |
| TASPAKETSF [SLC2A7, Q6PXP3] | below the threshold |
| MLSKQSESAI [FLVCR1, Q9Y5Y0] | 3.79 |

Molecular target: T1, RHPN1, Q8TCX5
Experiment: holdup assay
Parameters: key: below the threshold = too weak to quantify, mostly under pKd 3.1 to 4
Settings: plain residues with an end cap or a label only (N-terminal biotin on a linker: ado-ado)

| Binder | pKd |
| --- | --- |
| TASPAKETSF [SLC2A7, Q6PXP3] | 3.97 |
| MLSKQSESAI [FLVCR1, Q9Y5Y0] | 4.01 |

Molecular target: NHERF4_4, Q86UT5
Sequence (Q86UT5 464-550): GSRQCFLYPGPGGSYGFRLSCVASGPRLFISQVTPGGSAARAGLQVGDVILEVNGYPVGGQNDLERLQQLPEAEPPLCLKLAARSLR
Experiment: holdup assay
Parameters: key: below the threshold = too weak to quantify, mostly under pKd 3.1 to 4
Settings: plain residues with an end cap or a label only (N-terminal biotin on a linker: ado-ado)

| Binder | pKd |
| --- | --- |
| TASPAKETSF [SLC2A7, Q6PXP3] | below the threshold |
| MLSKQSESAI [FLVCR1, Q9Y5Y0] | 3.92 |

Molecular target: T2, SYNJ2BP, P57105
Experiment: holdup assay
Parameters: key: below the threshold = too weak to quantify, mostly under pKd 3.1 to 4
Settings: plain residues with an end cap or a label only (N-terminal biotin on a linker: ado-ado)

| Binder | pKd |
| --- | --- |
| TASPAKETSF [SLC2A7, Q6PXP3] | below the threshold |
| MLSKQSESAI [FLVCR1, Q9Y5Y0] | 4.52 |

Molecular target: T3, PTPN13_1, Q12923
Experiment: holdup assay
Parameters: key: below the threshold = too weak to quantify, mostly under pKd 3.1 to 4
Settings: plain residues with an end cap or a label only (N-terminal biotin on a linker: ado-ado)

| Binder | pKd |
| --- | --- |
| TASPAKETSF [SLC2A7, Q6PXP3] | below the threshold |
| MLSKQSESAI [FLVCR1, Q9Y5Y0] | below the threshold |

Molecular target: T4, GRIP1_4, Q9Y3R0
Experiment: holdup assay
Parameters: key: below the threshold = too weak to quantify, mostly under pKd 3.1 to 4
Settings: plain residues with an end cap or a label only (N-terminal biotin on a linker: ado-ado)

| Binder | pKd |
| --- | --- |
| TASPAKETSF [SLC2A7, Q6PXP3] | below the threshold |
| MLSKQSESAI [FLVCR1, Q9Y5Y0] | below the threshold |

Molecular target: Inadl_10, Q8NI35
Sequence (Q8NI35 1673-1763): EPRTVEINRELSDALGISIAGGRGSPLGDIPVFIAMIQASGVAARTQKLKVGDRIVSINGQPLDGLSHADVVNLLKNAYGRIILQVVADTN
Experiment: holdup assay
Parameters: key: below the threshold = too weak to quantify, mostly under pKd 3.1 to 4
Settings: plain residues with an end cap or a label only (N-terminal biotin on a linker: ado-ado)

| Binder | pKd |
| --- | --- |
| TASPAKETSF [SLC2A7, Q6PXP3] | below the threshold |
| MLSKQSESAI [FLVCR1, Q9Y5Y0] | below the threshold |

Molecular target: T5, PARD3B_1, Q8TEW8
Experiment: holdup assay
Parameters: key: below the threshold = too weak to quantify, mostly under pKd 3.1 to 4
Settings: plain residues with an end cap or a label only (N-terminal biotin on a linker: ado-ado)

| Binder | pKd |
| --- | --- |
| TASPAKETSF [SLC2A7, Q6PXP3] | 3.96 |
| MLSKQSESAI [FLVCR1, Q9Y5Y0] | 3.47 |

Molecular target: T6, DFNB31_1, Q9P202
Experiment: holdup assay
Parameters: key: below the threshold = too weak to quantify, mostly under pKd 3.1 to 4
Settings: plain residues with an end cap or a label only (N-terminal biotin on a linker: ado-ado)

| Binder | pKd |
| --- | --- |
| TASPAKETSF [SLC2A7, Q6PXP3] | 3.94 |
| MLSKQSESAI [FLVCR1, Q9Y5Y0] | 4.86 |

Molecular target: Inadl_9, Q8NI35
Sequence (Q8NI35 1530-1615): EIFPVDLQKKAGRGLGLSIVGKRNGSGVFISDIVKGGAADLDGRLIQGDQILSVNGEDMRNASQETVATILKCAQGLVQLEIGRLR
Experiment: holdup assay
Parameters: key: below the threshold = too weak to quantify, mostly under pKd 3.1 to 4
Settings: plain residues with an end cap or a label only (N-terminal biotin on a linker: ado-ado)

| Binder | pKd |
| --- | --- |
| TASPAKETSF [SLC2A7, Q6PXP3] | below the threshold |
| MLSKQSESAI [FLVCR1, Q9Y5Y0] | below the threshold |

Molecular target: IL16_1, Q14005
Sequence (Q14005 210-306): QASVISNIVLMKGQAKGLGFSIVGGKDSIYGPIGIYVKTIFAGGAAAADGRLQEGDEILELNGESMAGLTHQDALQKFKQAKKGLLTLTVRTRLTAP
Experiment: holdup assay
Parameters: key: below the threshold = too weak to quantify, mostly under pKd 3.1 to 4
Settings: plain residues with an end cap or a label only (N-terminal biotin on a linker: ado-ado)

| Binder | pKd |
| --- | --- |
| TASPAKETSF [SLC2A7, Q6PXP3] | below the threshold |
| MLSKQSESAI [FLVCR1, Q9Y5Y0] | below the threshold |

Molecular target: T7, GRIP1_2, Q9Y3R0
Experiment: holdup assay
Parameters: key: below the threshold = too weak to quantify, mostly under pKd 3.1 to 4
Settings: plain residues with an end cap or a label only (N-terminal biotin on a linker: ado-ado)

| Binder | pKd |
| --- | --- |
| TASPAKETSF [SLC2A7, Q6PXP3] | below the threshold |
| MLSKQSESAI [FLVCR1, Q9Y5Y0] | below the threshold |

Molecular target: TJP2_1, Q9UDY2
Sequence (Q9UDY2 24-128): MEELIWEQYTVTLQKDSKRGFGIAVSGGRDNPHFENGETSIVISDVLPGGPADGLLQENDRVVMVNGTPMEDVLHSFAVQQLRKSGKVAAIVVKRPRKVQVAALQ
Experiment: holdup assay
Parameters: key: below the threshold = too weak to quantify, mostly under pKd 3.1 to 4
Settings: plain residues with an end cap or a label only (N-terminal biotin on a linker: ado-ado)

| Binder | pKd |
| --- | --- |
| TASPAKETSF [SLC2A7, Q6PXP3] | below the threshold |
| MLSKQSESAI [FLVCR1, Q9Y5Y0] | below the threshold |

Molecular target: T8, DLG3_1, Q92796
Experiment: holdup assay
Parameters: key: below the threshold = too weak to quantify, mostly under pKd 3.1 to 4
Settings: plain residues with an end cap or a label only (N-terminal biotin on a linker: ado-ado)

| Binder | pKd |
| --- | --- |
| TASPAKETSF [SLC2A7, Q6PXP3] | below the threshold |
| MLSKQSESAI [FLVCR1, Q9Y5Y0] | below the threshold |

Molecular target: T9, LIN7B, Q9HAP6
Experiment: holdup assay
Parameters: key: below the threshold = too weak to quantify, mostly under pKd 3.1 to 4
Settings: plain residues with an end cap or a label only (N-terminal biotin on a linker: ado-ado)

| Binder | pKd |
| --- | --- |
| TASPAKETSF [SLC2A7, Q6PXP3] | 4.5 |
| MLSKQSESAI [FLVCR1, Q9Y5Y0] | below the threshold |

Molecular target: HTRA1, Q92743
Sequence (Q92743 360-477): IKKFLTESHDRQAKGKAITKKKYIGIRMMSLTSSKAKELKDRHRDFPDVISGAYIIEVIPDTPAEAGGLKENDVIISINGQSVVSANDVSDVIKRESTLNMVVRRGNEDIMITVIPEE
Experiment: holdup assay
Parameters: key: below the threshold = too weak to quantify, mostly under pKd 3.1 to 4
Settings: plain residues with an end cap or a label only (N-terminal biotin on a linker: ado-ado)

| Binder | pKd |
| --- | --- |
| TASPAKETSF [SLC2A7, Q6PXP3] | below the threshold |
| MLSKQSESAI [FLVCR1, Q9Y5Y0] | below the threshold |

Molecular target: Inadl_5, Q8NI35
Sequence (Q8NI35 673-780): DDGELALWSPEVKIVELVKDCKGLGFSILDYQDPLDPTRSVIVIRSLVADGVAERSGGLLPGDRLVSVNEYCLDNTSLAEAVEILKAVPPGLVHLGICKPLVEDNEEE
Experiment: holdup assay
Parameters: key: below the threshold = too weak to quantify, mostly under pKd 3.1 to 4
Settings: plain residues with an end cap or a label only (N-terminal biotin on a linker: ado-ado)

| Binder | pKd |
| --- | --- |
| TASPAKETSF [SLC2A7, Q6PXP3] | below the threshold |
| MLSKQSESAI [FLVCR1, Q9Y5Y0] | below the threshold |

Molecular target: T10, DLG3_2, Q92796
Experiment: holdup assay
Parameters: key: below the threshold = too weak to quantify, mostly under pKd 3.1 to 4
Settings: plain residues with an end cap or a label only (N-terminal biotin on a linker: ado-ado)

| Binder | pKd |
| --- | --- |
| TASPAKETSF [SLC2A7, Q6PXP3] | 4.25 |
| MLSKQSESAI [FLVCR1, Q9Y5Y0] | 3.68 |

Molecular target: T11, MPDZ_10, O75970
Experiment: holdup assay
Parameters: key: below the threshold = too weak to quantify, mostly under pKd 3.1 to 4
Settings: plain residues with an end cap or a label only (N-terminal biotin on a linker: ado-ado)

| Binder | pKd |
| --- | --- |
| TASPAKETSF [SLC2A7, Q6PXP3] | below the threshold |
| MLSKQSESAI [FLVCR1, Q9Y5Y0] | below the threshold |

Molecular target: DLG1_3, Q12959
Sequence (Q12959 457-571): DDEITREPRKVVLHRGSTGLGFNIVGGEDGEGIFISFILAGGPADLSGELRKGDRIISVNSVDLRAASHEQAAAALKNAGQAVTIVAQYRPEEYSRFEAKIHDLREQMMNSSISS
Experiment: holdup assay
Parameters: key: below the threshold = too weak to quantify, mostly under pKd 3.1 to 4
Settings: plain residues with an end cap or a label only (N-terminal biotin on a linker: ado-ado)

| Binder | pKd |
| --- | --- |
| TASPAKETSF [SLC2A7, Q6PXP3] | below the threshold |
| MLSKQSESAI [FLVCR1, Q9Y5Y0] | 3.77 |

Molecular target: GORASP2, Q9H8Y8
Experiment: holdup assay
Parameters: key: below the threshold = too weak to quantify, mostly under pKd 3.1 to 4
Settings: plain residues with an end cap or a label only (N-terminal biotin on a linker: ado-ado)

| Binder | pKd |
| --- | --- |
| TASPAKETSF [SLC2A7, Q6PXP3] | below the threshold |
| MLSKQSESAI [FLVCR1, Q9Y5Y0] | below the threshold |

Molecular target: LAP2, Q96RT1
Sequence (Q96RT1 other isoform, or with tags, fused parts or gaps): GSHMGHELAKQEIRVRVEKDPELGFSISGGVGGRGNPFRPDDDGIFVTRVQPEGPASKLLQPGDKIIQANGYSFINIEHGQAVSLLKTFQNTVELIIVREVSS
Experiment: holdup assay
Parameters: key: below the threshold = too weak to quantify, mostly under pKd 3.1 to 4
Settings: plain residues with an end cap or a label only (N-terminal biotin on a linker: ado-ado)

| Binder | pKd |
| --- | --- |
| TASPAKETSF [SLC2A7, Q6PXP3] | below the threshold |
| MLSKQSESAI [FLVCR1, Q9Y5Y0] | below the threshold |

Molecular target: T12, HTRA3, P83110
Experiment: holdup assay
Parameters: key: below the threshold = too weak to quantify, mostly under pKd 3.1 to 4
Settings: plain residues with an end cap or a label only (N-terminal biotin on a linker: ado-ado)

| Binder | pKd |
| --- | --- |
| TASPAKETSF [SLC2A7, Q6PXP3] | below the threshold |
| MLSKQSESAI [FLVCR1, Q9Y5Y0] | below the threshold |

Molecular target: TJP1_3, Q07157
Sequence (Q07157 416-512): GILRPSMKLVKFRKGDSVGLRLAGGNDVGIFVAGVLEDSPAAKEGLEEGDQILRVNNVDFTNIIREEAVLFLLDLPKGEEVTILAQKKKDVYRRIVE
Experiment: holdup assay
Parameters: key: below the threshold = too weak to quantify, mostly under pKd 3.1 to 4
Settings: plain residues with an end cap or a label only (N-terminal biotin on a linker: ado-ado)

| Binder | pKd |
| --- | --- |
| TASPAKETSF [SLC2A7, Q6PXP3] | below the threshold |
| MLSKQSESAI [FLVCR1, Q9Y5Y0] | below the threshold |

Molecular target: DLG4_1, P78352
Sequence (P78352 62-152): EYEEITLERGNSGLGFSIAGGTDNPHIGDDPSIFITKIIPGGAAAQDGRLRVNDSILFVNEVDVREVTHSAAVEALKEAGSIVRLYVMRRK
Experiment: holdup assay
Parameters: key: below the threshold = too weak to quantify, mostly under pKd 3.1 to 4
Settings: plain residues with an end cap or a label only (N-terminal biotin on a linker: ado-ado)

| Binder | pKd |
| --- | --- |
| TASPAKETSF [SLC2A7, Q6PXP3] | below the threshold |
| MLSKQSESAI [FLVCR1, Q9Y5Y0] | below the threshold |
